Reference: US20160208233A1 (Harvard, published 2016)
Where a chain is given by its changes, count along the chain named. Non-standard residues stand in square brackets, D forms with d. No end group written: not given here. *: point of attachment. Dnp = O=[N+]([O-])c1ccc(*)c([N+](=O)[O-])c1; 2Abz = Nc1ccccc1C(=O)O

Experiments:
Abz-LAETGK(Dnp)-CONH2 [1] = target: T1, Abz-LAETGK(Dnp)-CONH2
T1 chain: LAETGK

Abz-LPETGK(Dnp)-CONH2 = target: T2, Abz-LPETGK(Dnp)-CONH2
T2 chain: LPETGK

Gly-Gly-Gly-COOH = target: T3, Gly-Gly-Gly-COOH
T3 chain: GGG

Abz-LAETGK(Dnp)-CONH2 [2] = target: T4, Abz-LAETGK(Dnp)-CONH2 (N-terminus assumed; SMILES CC(C)C[C@H](NC(=O)c1ccccc1N)C(=O)N[C@@H](C)C(=O)N[C@@H](CCC(=O)O)C(=O)N[C@H](C(=O)NCC(=O)N[C@@H](CCCCNc1ccc([N+](=O)[O-])cc1[N+](=O)[O-])C(N)=O)[C@@H](C)O); assay: cell-based or functional assay
T4 peptide: [2Abz]LAETGK(Dnp)-NH2

Abz-LSETGK(Dnp)-CONH2 = target: T5, Abz-LSETGK(Dnp)-CONH2
T5 chain: LSETGK

Abz-LPESGK(Dnp)-CONH2 [3] = target: T6, Abz-LPESGK(Dnp)-CONH2
T6 chain: LPESGK

[4] = target: T7, human fetuin A, endogenous in human plasma, P02765
T7 chain: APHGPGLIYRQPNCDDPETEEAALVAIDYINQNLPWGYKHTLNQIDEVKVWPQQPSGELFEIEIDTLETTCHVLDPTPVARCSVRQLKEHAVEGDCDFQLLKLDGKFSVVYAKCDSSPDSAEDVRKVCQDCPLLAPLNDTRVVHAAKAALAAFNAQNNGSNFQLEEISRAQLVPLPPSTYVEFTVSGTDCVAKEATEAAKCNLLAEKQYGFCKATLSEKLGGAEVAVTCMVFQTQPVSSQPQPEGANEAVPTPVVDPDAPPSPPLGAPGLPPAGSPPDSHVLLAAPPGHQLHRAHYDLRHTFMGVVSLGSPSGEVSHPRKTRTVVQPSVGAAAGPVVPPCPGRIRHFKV

Abz-LPECGK(Dnp)-CONH2 = target: T8, Abz-LPECGK(Dnp)-CONH2
T8 chain: LPECGK

Abz-LPEAGK(Dnp)-CONH2 = target: T9, Abz-LPEAGK(Dnp)-CONH2
T9 chain: LPEAGK

Abz-LPESGK(Dnp)-CONH2 [5] = target: T10, Abz-LPESGK(Dnp)-CONH2 (N-terminus assumed; SMILES CC(C)C[C@H](NC(=O)c1ccccc1N)C(=O)N1CCC[C@H]1C(=O)N[C@@H](CCC(=O)O)C(=O)N[C@@H](CO)C(=O)NCC(=O)N[C@@H](CCCCNc1ccc([N+](=O)[O-])cc1[N+](=O)[O-])C(N)=O); assay: cell-based or functional assay
T10 peptide: [2Abz]LPESGK(Dnp)-NH2

B1: 2A.6C (protein)
chain: QAKPQIPKDKSKVAGYIEIPDADIKEPVYPGPATREQLNRGVSFHEENESLDDQNISIAGHTFIDRPNYQFTNLKAAKPGSMVYFKVGNETRIYKMTSIRKVRPTAVEVLDEQKGKDKQLTLVTCDDYNEETGVWETRKIFVATEVK
- Km, LxExG (Abz-LAETGK(Dnp)-CONH2 [1]): 343 µM
- increased affinity for the LAETG substrate as compared to the LPETG substrate (Abz-LAETGK(Dnp)-CONH2 [1]): from ˜61 (2A.6c) to ˜116fold (2Ar5)
- kcat/Km (Hz/M) (Abz-LAETGK(Dnp)-CONH2 [1]): 2380 Hz/M
- specificity (relative cat. Efficiency, fold), LAETG over LPETG (Abz-LAETGK(Dnp)-CONH2 [1]): 61.6 fold
- Km, LxExG (Abz-LPETGK(Dnp)-CONH2): 1980 µM
- kcat/Km (Hz/M) (Abz-LPETGK(Dnp)-CONH2): 38.7 Hz/M
- Km, GGG (uM); with LAETG peptide (Gly-Gly-Gly-COOH): 642 µM

B2: eSrtA(2A-3.5) (enzyme)
chain: B1 chain with H45A, P79K, I93K, K101N, V109I, V123F
- Avg KM (Abz-LAETGK(Dnp)-CONH2 [1]): 6370 µM
- Avg kcat/KM (Abz-LAETGK(Dnp)-CONH2 [1]): 180
- Km, LxExG (Abz-LAETGK(Dnp)-CONH2 [1]): 7160 µM
- kcat/Km (Hz/M) (Abz-LAETGK(Dnp)-CONH2 [1]): 175 Hz/M
- Avg KM (Abz-LPETGK(Dnp)-CONH2): 3750 µM
- Avg kcat/KM (Abz-LPETGK(Dnp)-CONH2): 406
- Km, LxExG (Abz-LPETGK(Dnp)-CONH2): 4110 µM
- Specificity (relative catalytic efficiency, fold), LPETG over LAETG (Abz-LPETGK(Dnp)-CONH2): 2.25 fold
- kcat/Km (Hz/M) (Abz-LPETGK(Dnp)-CONH2): 386 Hz/M
- specificity (relative cat. Efficiency, fold), by the kcat/Km cells LPETG over LAETG (Abz-LAETGK(Dnp)-CONH2 [2]): 2.21 fold

B3: evolved sortase A (eSrtA) (enzyme)
chain: B1 chain with H45A, P79K, I93K, K101N, R103K, V123I
- Km (Abz-LAETGK(Dnp)-CONH2 [1]): 6070 µM
- Km, LxExG (Abz-LAETGK(Dnp)-CONH2 [1]): 6160 µM
- Rel. Activity (fold below the enzyme's best substrate, LPETG) (Abz-LAETGK(Dnp)-CONH2 [1]): 103 fold
- kcat/Km (Abz-LAETGK(Dnp)-CONH2 [1]): 223 M⁻¹ s⁻¹
- kcat/Km (Hz/M) (Abz-LAETGK(Dnp)-CONH2 [1]): 221 Hz/M
- Km (Abz-LSETGK(Dnp)-CONH2): 533 µM
- kcat/Km (Abz-LSETGK(Dnp)-CONH2): 192 M⁻¹ s⁻¹
- Km (Abz-LPESGK(Dnp)-CONH2 [3]): 318 µM
- Km, LxExG (Abz-LPESGK(Dnp)-CONH2 [3]): 672 µM
- Rel. Activity (fold below the enzyme's best substrate, LPETG) (Abz-LPESGK(Dnp)-CONH2 [3]): 4.9 fold
- kcat/Km (Abz-LPESGK(Dnp)-CONH2 [3]): 4650 M⁻¹ s⁻¹
- kcat/Km (Hz/M) (Abz-LPESGK(Dnp)-CONH2 [3]): 2650 Hz/M
- Km (Abz-LPETGK(Dnp)-CONH2): 230 µM
- Km, LxExG (Abz-LPETGK(Dnp)-CONH2): 208 µM
- kcat/Km (Abz-LPETGK(Dnp)-CONH2): 23000 M⁻¹ s⁻¹
- kcat/Km (Hz/M) (Abz-LPETGK(Dnp)-CONH2): 27100 Hz/M
- specificity (relative cat. Efficiency, fold), LPETG over LAETG (Abz-LPETGK(Dnp)-CONH2): 123 fold
- conjugation efficiency in human plasma, with supplemental calcium (densitometry) [4]: 0.6% by eSrtA in the presence supplemental calcium
- fetuin A conjugation efficiency with 10 mM added CaCl2, against eSrtA(4S-9) [4]: only modest fetuin A conjugation efficiencies (90-fold lower than that of eSrtA(4S-9)) in the presence of 10 mM added CaCl2
- processing of fetuin A in human plasma without supplemental calcium [4]: eSrtA showed no processing of fetuin A without supplemental calcium
- Km (Abz-LPECGK(Dnp)-CONH2): 72.5 µM
- kcat/Km (Abz-LPECGK(Dnp)-CONH2): 48800 M⁻¹ s⁻¹
- Km, GGG (uM); with LPETG peptide (Gly-Gly-Gly-COOH): 2990 µM
- Km,GGG (µM); listed substrate LAETG (Gly-Gly-Gly-COOH): 807 µM
- Km,GGG (µM); listed substrate LPEAG (Gly-Gly-Gly-COOH): 48400 µM
- Km,GGG (µM); listed substrate LPECG (Gly-Gly-Gly-COOH): 57000 µM
- Km,GGG (µM); listed substrate LPESG (Gly-Gly-Gly-COOH): 22000 µM
- Km,GGG (µM); listed substrate LPETG (Gly-Gly-Gly-COOH): 1620 µM
- Km,GGG (µM); listed substrate LSETG (Gly-Gly-Gly-COOH): 337 µM
- Km (Abz-LPEAGK(Dnp)-CONH2): 83.4 µM
- kcat/Km (Abz-LPEAGK(Dnp)-CONH2): 8900 M⁻¹ s⁻¹
- specificity (relative cat. Efficiency, fold), by the kcat/Km cells LPETG over LPESG (Abz-LPESGK(Dnp)-CONH2 [5]): 10.2 fold
